For assay [1], the target named is integrins (on human umbilical vein endothelial cells, HUVEC) (human). Briefly: cell-based or functional assay.
Assay [2] shares this target. Briefly: cell-based or functional assay. This is another data set of the same source.

Like-named read-outs stand apart in the source and are kept apart here. Square brackets hold non-standard residues; d marks the D form. Ends that are not written are not given here. Cya = N[C@@H](CS(=O)(=O)O)C(=O)O

Regarding “Cyclic RGD (RGD-based peptide; N-methylated cyclic-RGDf-N(Me)V; Cilengitide)”, in assay [1], the inhibition of HUVEC wound healing (scratch assay on fibronectin coated surface; peptide 1 mM) after 24 hours worked out at 45% and the inhibition of cell adhesion in a model of wound healing using HUVEC, 12 hours was determined as 40%.
For the molecule GRG[Cya]TP-OH [Glycinyl-Arginyl-Glycinyl-Cysteic-Threonyl-Proline-COOH (GRG Cysteic Acid TP)], in assay [2], the inhibition of HUVEC wound healing (scratch assay on fibronectin coated surface; peptide 10 mM) after 24 hours came out at 70% and the inhibition of cell adhesion in a model of wound healing using HUVEC, 12 hours came to 74%.
